Measurements reported in IntAct's records for PubMed 19154346.

B1: Calreticulin (Homo sapiens), P27797 (parent)
chain: MLLSVPLLLGLLGLAVAEPAVYFKEQFLDGDGWTSRWIESKHKSDFGKFVLSSGKFYGDEEKDKGLQTSQDARFYALSASFEPFSNKGQTLVVQFTVKHEQNIDCGGGYVKLFPNSLDQTDMHGDSEYNIMFGPDICGPGTKKVHVIFNYKGKNVLINKDIRCKDDEFTHLYTLIVRPDNTYEVKIDNSQVESGSLEDDWDFLPPKKIKDPDASKPEDWDERAKIDDPTDSKPEDWDKPEHIPDPDAKKPEDWDEEMDGEWEPPVIQNPEYKGEWKPRQIDNPDYKGTWIHPEIDNPEYSPDPSIYAYDNFGVLGLDLWQVKSGTIFDNFLITNDEAYAEEFGNETWGVTKAAEKQMKDKQDEEQRLKEEEEDKKRKEEEEAEDKEDDEDKDEDEEDEEDKEEDEEEDVPGQAKDEL

Variants of: B1
Conditions: with gbrap_human GABARAP

Row | effect of a mutation on the interaction | Variant
1 | disrupting interaction | W200A
